Consider four substances from paper PMC2587436.

A value given as a limit tells only on which side of the number the result lay.

What all share (experiment): SPR
(In general: In SPR one partner is held on a chip, and binding of the other changes the refractive index at the surface.)

For experiment [1], the target named is GST-APPBP1-UBA3Arg190Gln (Cys216Ala) (human) (UniProt Q13564).
For experiment [2], the target named is GST-APPBP1-UBA3Arg190Ala (Cys216Ala) (human) (UniProt Q13564).
In experiment [3] the target is GST-APPBP1-UBA3 (Cys216Ala) (human) (UniProt Q13564).

In general, Kd refers to the equilibrium constant for the complex coming apart. Higher therefore signals a looser complex. Turning to “NEDD8Ala72Gln (from UniProt Q15843 1-76) (natural protein)”, the values for the dissociation constant Kd in experiment [1], in experiment [2] and in experiment [3] were above 10 µM, above 10 µM and 8.75 µM, respectively.

Regarding “NEDD8Ala72Arg (from UniProt Q15843 1-76) (natural protein)”, the dissociation constant Kd in experiment [1] was 1.02 µM; in experiment [2], 1.66 µM; in experiment [3], above 10 µM.

On to “NEDD8 (from UniProt Q15843 1-76) (natural protein)”, for which the Kd in experiment [1] was 3.46 µM; in experiment [2] it was 5.5 µM; in experiment [3] it was 0.333 µM.

For “NEDD8Ala72Lys (from UniProt Q15843 1-76) (natural protein)”, the dissociation constant Kd in experiment [1] was 0.886 µM; in experiment [2], 2.97 µM; in experiment [3], above 10 µM.
